Reference: patent publication US20110044986A1 (Amgen, published 2011)
Changes are numbered by the printed parent chain.

B1: antibody 7.11 (antibody, V domains shown)
VH: QLQLQESGPGLVKPSETLSLTCTVSGGSISSSRYYWGWIRQPPGKGLEWIGSISYRGNTYYYPSLKSRVTISVDTSKNQFSLKLNSVTAADTAVYYCARRTYSSGWSYFDYWGQGTLVTVSS
VL: SYELTQPYSMSVATAQMARITCGGNNIGSKAVHWYQQKPGQDPVLVIYSDSNRPSGIPERFSGSNPGNTATLTISRIEAGDEANYYCQVWDSSSDHWVFGGGTKLTVL
notes: Human anti-Aβ antibody; also called Ab 7.11
B2: antibody 6.27 (antibody, V domains shown)
VH: QVQLQESGPGLVKPSKTLSLTCTVSGGSISSYYWSWIRQPAGKGLEWIGRIYTSGSTNLNPSLKSRVTMSIDTSKSQFSLKLSSVTAADTAVYYCARLELRNYYYGMDVWGQGTTVTVSS
VL: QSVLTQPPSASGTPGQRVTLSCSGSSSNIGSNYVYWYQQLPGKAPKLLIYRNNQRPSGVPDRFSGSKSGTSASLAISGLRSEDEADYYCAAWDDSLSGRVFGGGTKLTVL
notes: Human anti-Aβ antibody; also called Ab 6.27
B3: antibody 1.2 (antibody, human IgG1, kappa, V domains shown)
VH: QVTLKESGPVLLKPTETLTLTCTVSGFSLSNARMGVSWIRQPPGKALEWLAHIFSNDEKSYITSLKSRLTISKDTSKSQVVLTMTNMDPVDTATYYCARIPLRSPGAFDIWGQGTMVTVSS
VL: DIVMTQTPLSSPVTLGQPASISCRSSQSLVHSDGNTYLNWLQQRPGQPPRLLIYKISNRFSGVPDRFTGSGAGTDFTLKISRVEAEDVGVYTCMQVTQFPLTFGQGTRLEIKR
notes: also called Ab 1.2; human antibody 1.2
B4: antibody 1.9 (antibody, human IgG1, kappa, V domains shown)
VH: B3 VH with L12V, I62S, S76F
VL: B3 VL with D1E, G34R, N39S, T68S, T92Y, V96T, F99L, T107A
notes: also called Ab 1.9; human antibody 1.9
B5: antibody 1.15 (antibody, V domains shown)
VH: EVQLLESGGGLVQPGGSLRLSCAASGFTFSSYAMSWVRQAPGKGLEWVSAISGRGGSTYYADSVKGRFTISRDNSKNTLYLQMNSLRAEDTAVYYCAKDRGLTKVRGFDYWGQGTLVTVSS
VL: DVVMTQSPFSLPVTLGQPASISCRSSQSLVYSDGNTSLNWFQQRPGQSPRRLIYKVSKWDSGVPDRFSGSGSGTDFTLKISRVEAEDVGVYYCMQGTHWPRGFTFGPGTKVDIK
notes: Human anti-Aβ antibody
B6: antibody 7.28 (antibody, V domains shown)
VH: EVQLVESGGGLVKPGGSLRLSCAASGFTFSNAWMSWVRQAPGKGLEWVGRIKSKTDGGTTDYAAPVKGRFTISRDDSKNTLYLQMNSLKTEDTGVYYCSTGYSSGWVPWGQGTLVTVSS
VL: QSVLTQPPSVSAAPGQKVTISCSGSSSNIGNNYVFWYQQLPGTAPKLLIYDNNKRPSGIPDRFSGSKSGTSATLGITGLQTGDEADYYCGTWDSSLSAGVFGGGTKVTAL
notes: Human anti-Aβ antibody; also called Ab 7.28
B7: antibody 1.14 (antibody, V domains shown)
VH: EVQLVESGGGLVQPGGSLRLSCAASGFTFSSYSMNWVRQAPGKGLEWVSYISRSSSAIYYADSVKGRFTISRDNAKNSLYLQMNSLRDEDTAVYYCARETTVTTRFYYYYYGVDVWGQGTTVTVSS
VL: DIQMTQSPSSVSASVGDRVTITCRASQGISSWLAWFQQKPGKAPKLLIYAASSLQSGVPSRFSGSGSGTDFTLTISSLQPEDFATYYCQQANSFPRTFGQGTKVEIK
notes: Human anti-Aβ antibody
B8: antibody 6.18 (antibody, V domains shown)
VH: B7 VH with V48L, R53S, S54R, A57T, T100R, V102G, F106Y, V113M
VL: B7 VL with F36S
notes: Human anti-Aβ antibody; also called Ab 6.18
B9: antibody 7.2 (antibody, V domains shown)
VH: QVQLVESGGGVVQPGRSLRLSCAASGFTFSSYGMHWVRQAPGKGLEWVAVIWYDGSNKYYADSVKGRFTISRDISKNTLYLQMNSLRAEDTAVYYCARSGPPLYSGIYYYYGMDVWGQGTTVTVSS
VL: SSELTQDPAVSVALGQTVRITCQGDSLRAYYAHWYQQKPGQAPVLVIYGKNNRPSGIPDRFSGSNSGNTASLTITGAQAEDEADYYCNSRDSSGNHVVFGGGTKLTVL
notes: Human anti-Aβ antibody; also called Ab 7.2
B10: antibody 1.7 (antibody, V domains shown)
VH: QVTLKESGPVLVKPTETLTLTCTVSGFSLSNARMSVSWIRQPPGKALEWLAHIFSNDEKSYSTSLKSRLTISKDTSKSQVVLTMTNMDPVDTATYYCARIRGTVGFDYWGQGTLVTVSS
VL: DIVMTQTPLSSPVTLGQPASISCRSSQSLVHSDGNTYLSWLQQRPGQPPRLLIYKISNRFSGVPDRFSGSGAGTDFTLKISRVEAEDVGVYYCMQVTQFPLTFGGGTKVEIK
notes: Human antibody from a Xenomouse hybridoma (IgG1 or IgG4 strains); also called Ab 1.7; human antibody 1.7
B11: antibody 1.1 (antibody, human IgG1, kappa, V domains shown)
VH: B10 VH with F106Y
VL: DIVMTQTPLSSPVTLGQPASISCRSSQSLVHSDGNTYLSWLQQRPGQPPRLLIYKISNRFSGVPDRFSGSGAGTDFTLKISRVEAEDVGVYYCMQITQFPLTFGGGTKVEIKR
notes: also called Ab 1.1; human antibody 1.1

Assays:
[1] = biological target: T1, human Aβ40 fibrils (human); experiment: BIAcore, fibrils immobilized, antibody injected
T1 construct: Fibrillar aggregate of the 40-residue peptide prepared in vitro; also called Fibrillar Aβ40; Aβ40 amyloid fibrils
Protocol: (§1) Preparation of Biacore Chip Surfaces: Immobilization of Proteins to a BIAcore sensor chip (CM5) was performed according to manufacturer's instructions. Briefly, carboxyl groups on the sensor chip surfaces were activated by injecting 60 μL of a mixture containing 0.2 M N-ethyl-N′-(dimethylaminopropyl) carbodiimide (EDC) and 0.05 M N-hydroxysuccinimide (NHS). Specific surfaces were obtained by injecting rProtein G (Pierce), goat anti-mouse Fc (Jackson Immuno Research Lab) or Aβ aggregates diluted in 10 mM acetate, pH 4.0 at concentrations between 5 and 20 μg/mL. Excess reactive groups on the surfaces were deactivated by injecting 60 μL of 1 M ethanolamine. […] A blank, mock-coupled reference surface was also prepared on the sensor chips for background subtraction.
(§2) Kinetic analysis of antibodies binding to immobilized Aβ fibrils: Avidity measurements to Aβ fibrils were made by immobilizing amyloid fibrils on the sensor chip surface followed by injection of antibody solutions over the surface, and injection of antibody solutions over a blank surface for background subtraction. Antibodies were diluted in PBS+0.005% P-20+0.1 mg/mL BSA at concentrations varying from 100 nM to 0.2 nM.

[2] = biological target: T2, human Aβ42 fibrils (human); experiment: BIAcore, fibrils immobilized, antibody injected
T2 construct: Fibrillar aggregate of the 42-residue peptide prepared in vitro; also called Fibrillar Aβ42; Aβ42 amyloid fibrils
Protocol: as §1, §2

[3] = biological target: T1, human Aβ40 fibrils; experiment: BIAcore, fibrils immobilized, antibody injected (avidity)
Protocol: as §1, §2

[4] = biological target: T2, human Aβ42 fibrils; experiment: as above
Protocol: as §1, §2

[5] = biological target: T3, Aβ42 oligomers (human); experiment: immunoprecipitation / Western blot
T3 construct: Soluble oligomers prepared from Aβ42 peptide in Ham's F-12; dimer, trimer and tetramer were seen on the blot; also called soluble, oligomeric species of Aβ42; Aβ42 dimer, trimer, and tetramer

[6] = biological target: T4, human Aβ42 monomer (human); experiment: BIAcore, antibody captured on protein G, Aβ monomer injected
T4 construct: also called soluble Aβ42; monomeric Aβ42
Protocol: as §1
(§3) Kinetic analysis of Aβ monomers binding to protein G captured antibodies: The kinetic analysis of the interaction between Aβ monomers and antibodies was performed as follows: Antibodies to be tested were diluted in PBS+0.005% P-20+0.1 mg/mL BSA and injected over the immobilized protein G Fc surface. Aβ monomers were diluted in PBS+0.005% P-20+0.1 mg/mL BSA from 1000 nM to 2 nM, and each concentration was injected over the captured antibody surfaces.

[7] = biological target: T5, human Aβ40 monomer (human); experiment: as above
T5 construct: also called soluble Aβ40
Protocol: as §1, §3

[8] = biological target: T1, human Aβ40 fibrils; experiment: ELISA, fibrils dried on plate, europium TRF
Protocol: (§4) The fibrils (Aβ or collagen) were diluted to 10 μg/ml in water and mixed thoroughly. The solution was aliquoted into the wells of a microtiter plate (Immulon-2; VWR; Cat # 62404-972) at 50 μl per well (resulting in 0.5 μg fibrils/well final). The plate was dried overnight by being placed uncovered in a 37° C. incubator.
(§5) The wells were blocked with 200 μl of blocking solution and incubated for ≧1 hour at room temperature (RT) with shaking. The blocking solution was flicked out and gently dried on a paper towel. 100 μl of primary antibody diluted in PBS containing 10% blocking solution was added to each well and the plate was incubated at RT for 1 hour with shaking. The plate was washed with 5-10× in TBS, pH 7.5+0.05% Tween 20. 100 μl of secondary antibodies (each diluted 1-2,000-fold in PBS) was added to each well and the plate was incubate at RT for 1 hour with shaking. The plate was washed with 5-10× in TBS, pH 7.5+0.05% Tween 20. 100 μl Streptavidin-Europium reagent (1-1,000-fold dilution) was added (100 μL/well) and the plate was incubated at room temperature for 45 minutes with shaking. The plate was washed 5-10× in TBS, pH 7.5+0.05% Tween 20. 120 μl Enhance Solution was added and the plate was incubated at room temperature for 15-30 minutes with shaking. The plate was read on a Victor TRF plate reader (Europium program).

[9] = biological target: T2, human Aβ42 fibrils; experiment: ELISA, fibrils dried on plate, europium TRF
Protocol: as §4, §5

[10] = biological target: T4, human Aβ42 monomer; experiment: ELISA, monomer coated on plate, europium TRF
Protocol: (§6) The same techniques were used for the coating of the microtiter plate for monomer ELISA. The fibrils Aβ monomer were diluted to 2.5 μg/ml in Coating buffer and mixed thoroughly. The solution was aliquoted into the wells of a microtiter plate [Immulon-2; VWR; Cat.# 62404-972] at 100 μl per well. The plate was sealed and incubated overnight at 4° C. The plate was washed 5-10× to remove Aβ coating solution prior to starting the assay.
as §5

[11] = biological target: T5, human Aβ40 monomer; experiment: ELISA, monomer coated on plate, europium TRF
Protocol: as §6, §5

[12] = biological target: amyloid plaques in unfixed Tg2576 mouse brain sections (human, UniProt P05067 672-713, limits assumed); experiment: cell-based or functional assay
Chain of amyloid plaques in unfixed Tg2576 mouse brain sections (P05067 672-713 limits assumed, form in doubt): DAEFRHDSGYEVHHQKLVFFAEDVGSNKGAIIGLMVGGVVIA

T1 sequence (peptide, as listed by the source): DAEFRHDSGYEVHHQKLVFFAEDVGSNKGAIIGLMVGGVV
T4 sequence (peptide, as listed by the source): as the sequence (P05067 672-713 limits assumed, form in doubt) above
T2 sequence (peptide, as listed by the source): as the sequence (P05067 672-713 limits assumed, form in doubt) above
T3 sequence (peptide, as listed by the source): as the sequence (P05067 672-713 limits assumed, form in doubt) above

| Binder | koff [1] | koff [2] | Kd [3] | koff [3] | kon [3] | Kd [4] | koff [4] | kon [4] | Kd [6] | Kd [7] | EC50 [8] | EC50 [9] | EC50 [10] | EC50 [11] | other results |
| --- | --- | --- | --- | --- | --- | --- | --- | --- | --- | --- | --- | --- | --- | --- | --- |
| B1 | 0.0008 s⁻¹ | 0.00049 s⁻¹ | – | – | – | – | – | – | – | – | – | – | – | – | – |
| B2 | 0.005 s⁻¹ | 0.0021 s⁻¹ | – | – | – | – | – | – | – | – | – | – | – | – | – |
| B3 | – | – | 0.06 nM | 0.00017 s⁻¹ | 2.9e+06 M⁻¹ s⁻¹ | 1.7 nM | 0.00019 s⁻¹ | 170000 M⁻¹ s⁻¹ | 14 nM | > 200 nM | 0.115 nM | 0.086 nM | 0.056 nM | 0.689 nM | binding result [5]: binds; koff [6]: 0.0011 s⁻¹; kon [6]: 78000 M⁻¹ s⁻¹ |
| B4 | – | – | 0.03 nM | 0.00017 s⁻¹ | 5.3e+06 M⁻¹ s⁻¹ | 1.8 nM | 0.00019 s⁻¹ | 110000 M⁻¹ s⁻¹ | 47 nM | > 200 nM | 0.195 nM | 0.096 nM | 0.037 nM | 0.042 nM | koff [6]: 0.0029 s⁻¹; kon [6]: 61000 M⁻¹ s⁻¹ |
| B5 | 0.00096 s⁻¹ | 0.0011 s⁻¹ | – | – | – | – | – | – | – | – | – | – | – | – | – |
| B6 | 8.2e-05 s⁻¹ | 0.00021 s⁻¹ | – | – | – | – | – | – | – | – | – | – | – | – | – |
| B7 | 0.0013 s⁻¹ | 0.00087 s⁻¹ | – | – | – | – | – | – | – | – | – | – | – | – | – |
| B8 | 0.004 s⁻¹ | 0.0026 s⁻¹ | – | – | – | – | – | – | – | – | – | – | – | – | – |
| B9 | 0.00014 s⁻¹ | 0.00029 s⁻¹ | – | – | – | – | – | – | – | – | – | – | – | – | – |
| B10 | – | – | 0.1 nM | 0.00042 s⁻¹ | 3.8e+06 M⁻¹ s⁻¹ | 2.9 nM | 0.0005 s⁻¹ | 170000 M⁻¹ s⁻¹ | > 20 nM | > 200 nM | 0.09 nM | 0.071 nM | 0.052 nM | 0.615 nM | EC50 of ex vivo phagocytosis [12]: 2 µg/mL; binding result [5]: binds |
| B11 | – | – | 0.02 nM | 8.1e-05 s⁻¹ | 4.2e+06 M⁻¹ s⁻¹ | 0.8 nM | 0.00016 s⁻¹ | 200000 M⁻¹ s⁻¹ | 16 nM | 117 nM | 0.133 nM | 0.082 nM | 0.045 nM | 0.054 nM | koff [6]: 0.0039 s⁻¹; kon [6]: 240000 M⁻¹ s⁻¹; koff [7]: 0.015 s⁻¹; kon [7]: 130000 M⁻¹ s⁻¹ |
